Experimental findings from paper doi:10.1101/2021.02.26.432832 (bioRxiv, 2021) are described below.

This test addresses recombinant, reconstituted histone H3/H4 tetramers (Xenopus laevis, UniProt P84233;P62799). Kind of test: pull-down.

B1: GST-tagged full-length Ioc4 (natural protein)
chain: MSEAIFQPTDIVLAKVKGFSAWPAMIIPNELIPDNILKTKPVSVHKGKSGSDKKANEDIDADMESEARDREQSEEEEDIEDFGESEANPEKFIIYTPVLKFRKNDTLKSTYCVKFFCDDSYIWVKPMDMKILTSEDCRKWLSGKQRKNKKLIPAYEMAMRGKNGIDIWEFVEYGSYGKPDEEEYVEEEEEENEPEKKAIRPTRSSSRQRQKRASETEKSEGGNSNKRKRVTRSTRQQAIDASEEEEEEEEEKVQEAVRKRPQRTKTKKVVVSKTKPNPKTKAKKEKPKPPKPIKYHFEDDEDWSIVGLGPQDLSIEKTMDPIAKKLSQKKNLEKHVEIKLDLEDKLAGINKLLCDVLCSAINQAVSIKDDFEIILDELQIALDTRGSRNEFITIFQSNNSLLLNFRILFNLRKRELNKWDLWDRFQDIFKHIYSYQFIPDTEDWQLEQNMEIEEMDREKPSFSEDVKEEESKVGA
As for B1, the binding result is on record as “binds”.
